± gives the standard deviation of the averaged measurements.
Assay: total protein half-life in vivo (active degradation + dilution); higher = more stable protein
[1] = E. coli NCM3722 delta-clpP delta-lon delta-hslV, growth: N-lim chemostat, doubling time 6 h
[2] = E. coli NCM3722 delta-smpB, growth: N-lim chemostat, doubling time 6 h
[3] = wild type E. coli NCM3722, growth: N-lim chemostat, doubling time 12 h
[4] = wild type E. coli NCM3722, growth: C-lim chemostat, doubling time 3 h
[5] = wild type E. coli NCM3722, growth: C-lim chemostat, doubling time 6 h
[6] = wild type E. coli NCM3722, growth: C-lim chemostat, doubling time 12 h
[7] = wild type E. coli NCM3722, growth: P-lim chemostat, doubling time 6 h
[8] = wild type E. coli NCM3722, growth: P-lim chemostat, doubling time 12 h

| Sequence | total protein half-life in vivo [1] [h] | total protein half-life in vivo [2] [h] | total protein half-life in vivo [3] [h] | total protein half-life in vivo [4] [h] | total protein half-life in vivo [5] [h] | total protein half-life in vivo [6] [h] | total protein half-life in vivo [7] [h] | total protein half-life in vivo [8] [h] | other results |
| --- | --- | --- | --- | --- | --- | --- | --- | --- | --- |
| MKAVSRVHITPHMHWDREWYFTTEESRILLVNNMEEILCRLEQDNEYKYYVLDGQTAILEDYFAVKPENKDRVKKQVEAGKLIIGPWYTQTDTTIVSAESIVRNLMYGMRDCLAFGEPMKIGYLPDSFGMSGQLPHIYNGFGITRTMFWRGCSERHGTDKTEFLWQSSDGSEVTAQVLPLGYAIGKYLPADENGLRKRLDSYFDVLEKASVTKEILLPNGHDQMPLQQNIFEVMDKLREIYPQRKFVMSRFEEVFEKIEAQRDNLATLKGEFIDGKYMRVHRTIGSTRMDIKIAHARIENKIVNLLEPLATLAWTLGFEYHHGLLEKMWKEILKNHAHDSIGCCCSDKVHREIVARFELAEDMADNLIRFYMRKIADNMPQSDADKLVLFNLMPWPREEVINTTVRLRASQFNLRDDRGQPVPYFIRHAREIDPGLIDRQIVHYGNYDPFMEFDIQINQIVPSMGYRTLYIEANQPGNVIAAKSDAEGILENAFWQIALNEDGSLQLVDKDSGVRYDRVLQIEESSDDGDEYDYSPAKEEWVITAANAKPQCDIIHEAWQSRAVIRYDMAVPLNLSERSARQSTGRVGVVLVVTLSHNSRRIDVDINLDNQADDHRLRVLVPTPFNTDSVLADTQFGSLTRPVNDSAMNNWQQEGWKEAPVPVWNMLNYVALQEGRNGMAVFSEGLREFEVIGEEKKTFAITLLRGVGLLGKEDLLLRPGRPSGIKMPVPDSQLRGLLSCRLSLLSYTGTPTAAGVAQQARAWLTPVQCYNKIPWDVMKLNKAGFNVPESYSLLKMPPVGCLISALKKAEDRQEVILRLFNPAESATCDATVAFSREVISCSETMMDEHITTEENQGSNLSGPFLPGQSRTFSYRLA | 6.07 | 1.754 ± 0.011 | 3.4 |  |  |  |  |  |  |
| MSILYEERLDGALPDVDRTSVLMALREHVPGLEILHTDEEIIPYECDGLSAYRTRPLLVVLPKQMEQVTAILAVCHRLRVPVVTRGAGTGLSGGALPLEKGVLLVMARFKEILDINPVGRRARVQPGVRNLAISQAVAPHNLYYAPDPSSQIACSIGGNVAENAGGVHCLKYGLTVHNLLKIEVQTLDGEALTLGSDALDSPGFDLLALFTGSEGMLGVTTEVTVKLLPKPPVARVLLASFDSVEKAGLAVGDIIANGIIPGGLEMMDNLSIRAAEDFIHAGYPVDAEAILLCELDGVESDVQEDCERVNDILLKAGATDVRLAQDEAERVRFWAGRKNAFPAVGRISPDYYCMDGTIPRRALPGVLEGIARLSQQYDLRVANVFHAGDGNMHPLILFDANEPGEFARAEELGGKILELCVEVGGSISGEHGIGREKINQMCAQFNSDEITTFHAVKAAFDPDGLLNPGKNIPTLHRCAEFGAMHVHHGHLPFPELERF [P0AEP9] |  |  |  | 1.69 ± 0.022 | 3.62 ± 0.18 | 5.4 ± 0.53 | 2.38 ± 0.24 | 5.7 ± 3.1 |  |
| MLRVYHSNRLDVLEALMEFIVERERLDDPFEPEMILVQSTGMAQWLQMTLSQKFGIAANIDFPLPASFIWDMFVRVLPEIPKESAFNKQSMSWKLMTLLPQLLEREDFTLLRHYLTDDSDKRKLFQLSSKAADLFDQYLVYRPDWLAQWETGHLVEGLGEAQAWQAPLWKALVEYTHQLGQPRWHRANLYQRFIETLESATTCPPGLPSRVFICGISALPPVYLQALQALGKHIEIHLLFTNPCRYYWGDIKDPAYLAKLLTRQRRHSFEDRELPLFRDSENAGQLFNSDGEQDVGNPLLASWGKLGRDYIYLLSDLESSQELDAFVDVTPDNLLHNIQSDILELENRAVAGVNIEEFSRSDNKRPLDPLDSSITFHVCHSPQREVEVLHDRLLAMLEEDPTLTPRDIIVMVADIDSYSPFIQAVFGSAPADRYLPYAISDRRARQSHPVLEAFISLLSLPDSRFVSEDVLALLDVPVLAARFDITEEGLRYLRQWVNESGIRWGIDDDNVRELELPATGQHTWRFGLTRMLLGYAMESAQGEWQSVLPYDESSGLIAELVGHLASLLMQLNIWRRGLAQERPLEEWLPVCRDMLNAFFLPDAETEAAMTLIEQQWQAIIAEGLGAQYGDAVPLSLLRDELAQRLDQERISQRFLAGPVNICTLMPMRSIPFKVVCLLGMNDGVYPRQLAPLGFDLMSQKPKRGDRSRRDDDRYLFLEALISAQQKLYISYIGRSIQDNSERFPSVLVQELIDYIGQSHYLPGDEALNCDESEARVKAHLTCLHTRMPFDPQNYQPGERQSYAREWLPAASQAGKAHSEFVQPLPFTLPETVPLETLQRFWAHPVRAFFQMRLQVNFRTEDSEIPDTEPFILEGLSRYQINQQLLNALVEQDDAERLFRRFRAAGDLPYGAFGEIFWETQCQEMQQLADRVIACRQPGQSMEIDLACNGVQITGWLPQVQPDGLLRWRPSLLSVAQGMQLWLEHLVYCASGGNGESRLFLRKDGEWRFPPLAAEQALHYLSQLIEGYREGMSAPLLVLPESGGAWLKTCYDAQNDAMLDDDSTLQKARTKFLQAYEGNMMVRGEGDDIWYQRLWRQLTPETMEAIVEQSQRFLLPLFRFNQS | 5.23 ± 0.17 | 3.63 ± 0.41 | 6.21 ± 0.64 | 3.44 ± 0.61 | 5.57 ± 0.32 | 13 ± 2.4 | 6.1 ± 0.47 | 11.3 ± 0.4 | total protein half-life in vivo (E. coli NCM3722 delta-clpP, growth: N-lim chemostat, doubling time 6 h): 4.28 ± 0.21 h; total protein half-life in vivo (E. coli NCM3722 delta-hslV, growth: N-lim chemostat, doubling time 6 h): 3.58 ± 0.068 h; total protein half-life in vivo (E. coli NCM3722 delta-lon, growth: N-lim chemostat, doubling time 6 h): 4.13 ± 0.12 h; total protein half-life in vivo (wild type E. coli NCM3722, growth: N-lim chemostat, doubling time 6 h): 4.32 ± 0.95 h |
| MISDSKLLASAAWDAQSLNELKAKAGEDPAANIRPVARQVEGMFVQMMLKSMRDALPKDGLFSSEHTRLYTSMYDQQIAQQMTAGKGLGLAEMMVKQMTPEQPLPEESTPAAPMKFPLETVVRYQNQALSQLVQKAVPRNYDDSLPGDSKAFLAQLSLPAQLASQQSGVPHHLILAQAALESGWGQRQIRRENGEPSYNLFGVKASGNWKGPVTEITTTEYENGEAKKVKAKFRVYSSYLEALSDYVGLLTRNPRYAAVTTAASAEQGAQALQDAGYATDPHYARKLTNMIQQMKSISDKVSKTYSMNIDNLF |  |  |  | 0.391 |  |  |  |  |  |
| MNSLTTHYRRSQLIALPVPGGKAKVEYCYAVNVPGDREIVTHSFAEWAVGDFNRQKETVLCDKLTAGSKITTECPSESFVGSRKHNGLSTSAKVMSMNASARSNSFVVNSGK | 1.84 |  |  |  |  |  |  |  |  |
| MKIKTILTPVTCALLISFSAHAANADNYKNVINRTGAPQYMKDYDYDDHQRFNPFFDLGAWHGHLLPDGPNTMGGFPGVALLTEEYINFMASNFDRLTVWQDGKKVDFTLEAYSIPGALVQKLTAKDVQVEMTLRFATPRTSLLETKITSNKPLDLVWDGELLEKLEAKEGKPLSDKTIAGEYPDYQRKISATRDGLKVTFGKVRATWDLLTSGESEYQVHKSLPVQTEINGNRFTSKAHINGSTTLYTTYSHLLTAQEVSKEQMQIRDILARPAFYLTASQQRWEEYLKKGLTNPDATPEQTRVAVKAIETLNGNWRSPGGAVKFNTVTPSVTGRWFSGNQTWPWDTWKQAFAMAHFNPDIAKENIRAVFSWQIQPGDSVRPQDVGFVPDLIAWNLSPERGGDGGNWNERNTKPSLAAWSVMEVYNVTQDKTWVAEMYPKLVAYHDWWLRNRDHNGNGVPEYGATRDKAHNTESGEMLFTVKKGDKEETQSGLNNYARVVEKGQYDSLEIPAQVAASWESGRDDAAVFGFIDKEQLDKYVANGGKRSDWTVKFAENRSQDGTLLGYSLLQESVDQASYMYSDNHYLAEMATILGKPEEAKRYRQLAQQLADYINTCMFDPTTQFYYDVRIEDKPLANGCAGKPIVERGKGPEGWSPLFNGAATQANADAVVKVMLDPKEFNTFVPLGTAALTNPAFGADIYWRGRVWVDQFWFGLKGMERYGYRDDALKLADTFFRHAKGLTADGPIQENYNPLTGAQQGAPNFSWSAAHLYMLYNDFFRKQ |  | 6.15 |  |  |  |  |  |  |  |
